Test results published in PMC5452035, “Structural insight into recognition of phosphorylated threonine‐4 of RNA polymerase II C‐terminal domain by Rtt103p” (EMBO Reports, 2017).

Legend:
Experiment in all cases: fluorescence polarisation; fluorescence anisotropy; Rtt103p CID titrated into 10 nM N-terminally FAM-labelled CTD peptide; 10°C; 35 mM KH2PO4, 100 mM KCl, pH 6.8; 1:1 model with non-specific binding (DynaFit)
[1] = molecular target: FAM-PSY(pS)P(pT)…
[2] = molecular target: FAM-PSY(pS)…
[3] = molecular target: FAM-PSYSP(pT)SPSYSP(pT)SPS
[4] = molecular target: FAM-PSYSP(pT)…
[5] = molecular target: FAM-…

Kd [1]: 43 µM
Kd [2]: 6 µM
Kd [3]: 6 µM
Kd [4]: 15 µM
Kd [5]: 64 µM
Substance: Rtt103p CTD-interacting domain (CID) (3-131-6xHIS) (from UniProt Q05543 3-131) (domain or fragment)
